Measured values taken from FireProtDB (doi:10.1021/bi00174a031).

B1: Phosphoglycerate kinase, P00560 (parent)
chain: MSLSSKLSVQDLDLKDKRVFIRVDFNVPLDGKKITSNQRIVAALPTIKYVLEHHPRYVVLASHLGRPNGERNEKYSLAPVAKELQSLLGKDVTFLNDCVGPEVEAAVKASAPGSVILLENLRYHIEEEGSRKVDGQKVKASKEDVQKFRHELSSLADVYINDAFGTAHRAHSSMVGFDLPQRAAGFLLEKELKYFGKALENPTRPFLAILGGAKVADKIQLIDNLLDKVDSIIIGGGMAFTFKKVLENTEIGDSIFDKAGAEIVPKLMEKAKAKGVEVVLPVDFIIADAFSADANTKTVTDKEGIPAGWQGLDNGPESRKLFAATVAKAKTIVWNGPPGVFEFEKFAAGTKALLDEVVKSSAAGNTVIIGGGDTATVAKKYGVTDKISHVSTGGGASLELLEGKELPGVAFLSEKK

Variants of: B1
Settings: Saccharomyces cerevisiae (strain ATCC 204508 / S288c), pH 7.5, 25 °C, GdnHCl, Sodium phosphate 20 mM, structure 3PGK, whole UniProt chain shown

In the case of W309F, the “ddG of mutation (higher = less stable)” value (CD) is reported as 3.63 kcal/mol, the denaturant m value (CD) is reported as 8.4 kcal/mol/M and the “denaturant midpoint (higher = more stable)” value (“denaturant midpoint” below) (CD) is reported as 0.67 M. The unfolding free energy (CD) was 5.68 kcal/mol, the “ddG of mutation (higher = less stable)” value (Fluorescence) was 3.71 kcal/mol and the denaturant m value (Fluorescence) was 12.8 kcal/mol/M. The “denaturant midpoint” value (Fluorescence) was 0.63 M and the unfolding free energy (Fluorescence) was 8.04 kcal/mol.

With W309F W334F the “ddG of mutation (higher = less stable)” value (CD) was 6.33 kcal/mol, the denaturant m value (CD) was 6.1 kcal/mol/M and the “denaturant midpoint” value (CD) was 0.48 M. For the same variant, the unfolding free energy (CD) was 2.98 kcal/mol, the “ddG of mutation (higher = less stable)” value (Fluorescence) was 8.72 kcal/mol and the denaturant m value (Fluorescence) was 5.9 kcal/mol/M. The “denaturant midpoint” value (Fluorescence) was 0.49 M and the unfolding free energy (Fluorescence) was 3.03 kcal/mol.

In the case of W334F, the “ddG of mutation (higher = less stable)” value (CD) is reported as 3.93 kcal/mol, the denaturant m value (CD) is reported as 8.4 kcal/mol/M and the “denaturant midpoint” value (CD) is reported as 0.63 M. For the same variant, the unfolding free energy (CD) was 5.38 kcal/mol.
